This note sets out measurements from publication PMC9780815.

In the test the target is GFP-BMB1 (Hibiscus green spot virus). Put plainly: FRET or BRET.

In the case of BMB2-mRFP (natural protein), the FRET efficiency was 36% and the reduction of the GFP excited-state lifetime (FLIM) against the controls stood at 0.9 ns.
